Measured values reported in the supplement of paper PMC9732359.
± gives the uncertainty stated by the source.

Test: protein stability index of a GFP-peptide fusion (yeast GPS) (PSI 1-4); higher = more stable; sorted into four equal gates, so the index is relative within each strain
In short: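 Plasmids isolated from each sorting gate were PCR-amplified and Illumina-sequenced, and barcodes assigned the reads to strains. The gates, four of equal size, were set by GFP/Cherry fluorescence ratio on mid-log cultures in leucine-free medium. These cultures were yeast carrying a pooled library of tiled 17-residue yeast protein peptides fused downstream of GFP on a plasmid that also expresses Cherry. The protein stability index is the sum of every gate's read frequency times its gate number.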

RLRQFNLQPISTPENVP [SMC4]
protein stability index (doa10∆): 1.69 ± 0.081
protein stability index (pdr5∆): 1.76 ± 0.067
protein stability index (san1∆): 1.61 ± 0.14
protein stability index (ubr1∆): 1.73 ± 0.052

RLTAKRLIEHDPVEGNL [SRP14]
protein stability index (doa10∆): 2 ± 0.066
protein stability index (pdr5∆): 2.29 ± 0.052
protein stability index (san1∆): 1.93 ± 0.1
protein stability index (ubr1∆): 2.16 ± 0.045

RMLEEAIDHLKAELEKQ [YIL149C/MLP2]
protein stability index (doa10∆): 3.25 ± 0.056
protein stability index (pdr5∆): 3.21 ± 0.063
protein stability index (san1∆): 3.32 ± 0.073
protein stability index (ubr1∆): 3.12 ± 0.053

RMLSFEDISKATHLPKD [RPN9]
protein stability index (doa10∆): 2.95 ± 0.091
protein stability index (pdr5∆): 3.08 ± 0.08
protein stability index (san1∆): 3.15 ± 0.096
protein stability index (ubr1∆): 3.02 ± 0.055

RNILHNTVPQVTNFNST [SRB5]
protein stability index (doa10∆): 1.95 ± 0.056
protein stability index (pdr5∆): 2.87 ± 0.05
protein stability index (san1∆): 1.92 ± 0.052
protein stability index (ubr1∆): 2.44 ± 0.035

RNKSAANNDINSLLSNF [YDL088C/ASM4]
protein stability index (doa10∆): 2.94 ± 0.15
protein stability index (pdr5∆): 3.07 ± 0.095
protein stability index (san1∆): 2.99 ± 0.091
protein stability index (ubr1∆): 3.02 ± 0.056

RNNVANKQPRNESFNRR [YAR002W/NUP60]
protein stability index (doa10∆): 3.04 ± 0.088
protein stability index (pdr5∆): 3.41 ± 0.18
protein stability index (san1∆): 2.31 ± 0.12
protein stability index (ubr1∆): 3.24 ± 0.14

RNQILVSITDAPKIHIL [YMR129W/POM152]
protein stability index (doa10∆): 1.43 ± 0.041
protein stability index (pdr5∆): 1.35 ± 0.036
protein stability index (san1∆): 1.26 ± 0.057
protein stability index (ubr1∆): 1.61 ± 0.038

RNRDIALFQPPNFDWDL [ROX3]
protein stability index (doa10∆): 3.12 ± 0.096
protein stability index (pdr5∆): 3.33 ± 0.12
protein stability index (san1∆): 3.17 ± 0.11
protein stability index (ubr1∆): 2.98 ± 0.11

RNTMMIQCQIDKLYIHF [RGR1]
protein stability index (doa10∆): 1.98 ± 0.051
protein stability index (pdr5∆): 2.15 ± 0.061
protein stability index (san1∆): 2.08 ± 0.069
protein stability index (ubr1∆): 2.19 ± 0.041

RNVLSASLDGTIRLWEC [RPN14]
protein stability index (doa10∆): 2.95 ± 0.068
protein stability index (pdr5∆): 3.09 ± 0.073
protein stability index (san1∆): 3.14 ± 0.042
protein stability index (ubr1∆): 2.82 ± 0.043

RPDLIKEDHPLEFYKDK [SIR3]
protein stability index (doa10∆): 3.17 ± 0.07
protein stability index (pdr5∆): 3.23 ± 0.055
protein stability index (san1∆): 3.21 ± 0.039
protein stability index (ubr1∆): 3.08 ± 0.074

RPFDSFGKLLQAYQFLN [ITC1]
protein stability index (doa10∆): 1.44 ± 0.047
protein stability index (pdr5∆): 1.58 ± 0.058
protein stability index (san1∆): 1.48 ± 0.077
protein stability index (ubr1∆): 1.64 ± 0.053

RPSFQNNRISNANEISA [SWP82]
protein stability index (doa10∆): 2.22 ± 0.043
protein stability index (pdr5∆): 2.29 ± 0.047
protein stability index (san1∆): 1.99 ± 0.082
protein stability index (ubr1∆): 2.47 ± 0.054

RQFVSNVRSVIRSSRSR [RPP1]
protein stability index (doa10∆): 3.08 ± 0.063
protein stability index (pdr5∆): 3.08 ± 0.071
protein stability index (san1∆): 2.91 ± 0.064
protein stability index (ubr1∆): 3.09 ± 0.06

RQLTSLGSKKELGISLE [SNU114]
protein stability index (doa10∆): 3 ± 0.072
protein stability index (pdr5∆): 3.17 ± 0.079
protein stability index (san1∆): 3.14 ± 0.097
protein stability index (ubr1∆): 3.36 ± 0.062

RQNRRPELGDKFSSRHG [RET1]
protein stability index (pdr5∆): 3.4 ± 0.3
protein stability index (ubr1∆): 2.63 ± 0.21

RQQYYSGVQVGGVGSMG [SNF6]
protein stability index (doa10∆): 2.08 ± 0.068
protein stability index (pdr5∆): 2.44 ± 0.11
protein stability index (san1∆): 2.19 ± 0.094
protein stability index (ubr1∆): 2.24 ± 0.056

RRADVKTATVKINKKLN [RPL38]
protein stability index (doa10∆): 1.83 ± 0.058
protein stability index (pdr5∆): 1.84 ± 0.041
protein stability index (san1∆): 2.17 ± 0.086
protein stability index (ubr1∆): 1.62 ± 0.039

RRFKNGFQTGSASKASA [RPL37A]
protein stability index (doa10∆): 2.99 ± 0.053
protein stability index (pdr5∆): 2.98 ± 0.056
protein stability index (san1∆): 3.06 ± 0.067
protein stability index (ubr1∆): 2.88 ± 0.043

RRFYKNWYKSKKKAFTK [RPL3]
protein stability index (doa10∆): 2.98 ± 0.16
protein stability index (pdr5∆): 2.8 ± 0.11
protein stability index (san1∆): 1.6 ± 0.2
protein stability index (ubr1∆): 1.78 ± 0.08

RRIIQNAQQTFHIDHTK [RPO21]
protein stability index (doa10∆): 2.81 ± 0.061
protein stability index (pdr5∆): 2.89 ± 0.061
protein stability index (san1∆): 3 ± 0.062
protein stability index (ubr1∆): 2.89 ± 0.066

RRIPKRMRNRALREMRK [POP1]
protein stability index (doa10∆): 3.26 ± 0.11
protein stability index (pdr5∆): 2.45 ± 0.058
protein stability index (san1∆): 3.34 ± 0.078
protein stability index (ubr1∆): 2.88 ± 0.13

RRLDALVEKVYARFKND [ITC1]
protein stability index (doa10∆): 3.29 ± 0.16
protein stability index (pdr5∆): 1.93 ± 0.083
protein stability index (san1∆): 2.69 ± 0.078
protein stability index (ubr1∆): 2.29 ± 0.097

RRRDFGAPANKRPRRGL [SMD1]
protein stability index (doa10∆): 2.84 ± 0.094
protein stability index (pdr5∆): 2.93 ± 0.084
protein stability index (san1∆): 3.38 ± 0.07
protein stability index (ubr1∆): 3.29 ± 0.089

RRRDGVFLYFEDNAGVI [RPL23A]
protein stability index (doa10∆): 2.68 ± 0.13
protein stability index (pdr5∆): 2.83 ± 0.069
protein stability index (san1∆): 2.37 ± 0.11
protein stability index (ubr1∆): 2.9 ± 0.056

RRRLLGPAAAKPMAFSN [MTR3]
protein stability index (doa10∆): 3.06 ± 0.071
protein stability index (pdr5∆): 3.17 ± 0.055
protein stability index (san1∆): 3.23 ± 0.057
protein stability index (ubr1∆): 3.21 ± 0.038

RRTNTPIGRDGKLAKPR [RPB2]
protein stability index (doa10∆): 3.08 ± 0.1
protein stability index (pdr5∆): 3.06 ± 0.078
protein stability index (san1∆): 2.76 ± 0.084
protein stability index (ubr1∆): 2.96 ± 0.1

RRYDRKQSGFGGQTKPV [RPL42A]
protein stability index (doa10∆): 3.08 ± 0.084
protein stability index (pdr5∆): 3.03 ± 0.066
protein stability index (san1∆): 2.88 ± 0.056
protein stability index (ubr1∆): 3.148 ± 0.029

RSEDPAGLGKTNELWAR [YGR119C/NUP57]
protein stability index (doa10∆): 2.82 ± 0.068
protein stability index (pdr5∆): 2.24 ± 0.077
protein stability index (san1∆): 3.25 ± 0.075
protein stability index (ubr1∆): 3.4 ± 0.088

RSLATAVATPKAEVTQL [COR1]
protein stability index (doa10∆): 2.99 ± 0.1
protein stability index (pdr5∆): 3.09 ± 0.13
protein stability index (san1∆): 2.98 ± 0.092
protein stability index (ubr1∆): 2.89 ± 0.042

RSQDQENPAFLPGTNNN [SEC65]
protein stability index (doa10∆): 2.79 ± 0.082
protein stability index (pdr5∆): 2.75 ± 0.079
protein stability index (san1∆): 2.19 ± 0.063
protein stability index (ubr1∆): 2.8 ± 0.064

RSRNGGATKIVREHYLR [DIS3]
protein stability index (doa10∆): 3.21 ± 0.073
protein stability index (pdr5∆): 3.36 ± 0.083
protein stability index (san1∆): 3.36 ± 0.081
protein stability index (ubr1∆): 3.2 ± 0.099

RSWNEPSKSQTNFKEEI [YML103C/NUP188]
protein stability index (doa10∆): 2.9 ± 0.12
protein stability index (pdr5∆): 2.98 ± 0.13
protein stability index (san1∆): 3.17 ± 0.12
protein stability index (ubr1∆): 3.11 ± 0.075

RSWTLTSEMKVLSIPPA [YGL100W/SEH1]
protein stability index (doa10∆): 2.13 ± 0.054
protein stability index (pdr5∆): 2.18 ± 0.069
protein stability index (san1∆): 2.37 ± 0.064
protein stability index (ubr1∆): 2.1 ± 0.072

RTKSQVIEEDYDDEQNT [IRR1]
protein stability index (doa10∆): 2.4 ± 0.071
protein stability index (pdr5∆): 2.83 ± 0.15
protein stability index (san1∆): 2.38 ± 0.099
protein stability index (ubr1∆): 1.83 ± 0.16

RTSATREDTPLSQNEST [ISW2]
protein stability index (doa10∆): 2.99 ± 0.072
protein stability index (pdr5∆): 3.16 ± 0.064
protein stability index (san1∆): 2.93 ± 0.062
protein stability index (ubr1∆): 2.96 ± 0.05

RTWYESFCGFLLYYIPS [YJR042W/NUP85]
protein stability index (doa10∆): 1.88 ± 0.055
protein stability index (pdr5∆): 1.43 ± 0.047
protein stability index (san1∆): 1.58 ± 0.11
protein stability index (ubr1∆): 1.99 ± 0.057

RVGVKLKFNSTEYRGTL [SMX3]
protein stability index (doa10∆): 3.18 ± 0.11
protein stability index (pdr5∆): 3.17 ± 0.07
protein stability index (san1∆): 2.87 ± 0.09
protein stability index (ubr1∆): 3.02 ± 0.094

RVKDIHLRKLLDGELDF [RET1]
protein stability index (doa10∆): 2.87 ± 0.06
protein stability index (pdr5∆): 2.93 ± 0.062
protein stability index (san1∆): 3.03 ± 0.066
protein stability index (ubr1∆): 3.02 ± 0.041

RVKVHFDQAGKKVSRRN [RPL13A]
protein stability index (doa10∆): 3.46 ± 0.12
protein stability index (pdr5∆): 3.37 ± 0.1
protein stability index (san1∆): 3.26 ± 0.12
protein stability index (ubr1∆): 3.31 ± 0.079

RVNNPNVSLIKIEGVAT [RPL33A]
protein stability index (doa10∆): 2.54 ± 0.077
protein stability index (pdr5∆): 2.62 ± 0.062
protein stability index (san1∆): 2.38 ± 0.077
protein stability index (ubr1∆): 2.49 ± 0.048

RVVTVDGKLIDISGTMS [SMC4]
protein stability index (pdr5∆): 3.11 ± 0.19
protein stability index (san1∆): 3.35 ± 0.06
protein stability index (ubr1∆): 3.52 ± 0.12

RYLAVTLQDIGFYQIKK [YMR129W/POM152]
protein stability index (doa10∆): 2.53 ± 0.046
protein stability index (pdr5∆): 2.65 ± 0.043
protein stability index (san1∆): 2.73 ± 0.068
protein stability index (ubr1∆): 2.62 ± 0.043

RYLTLLSNEFTATNSKG [ECM29]
protein stability index (doa10∆): 2.89 ± 0.073
protein stability index (pdr5∆): 2.76 ± 0.064
protein stability index (san1∆): 2.61 ± 0.088
protein stability index (ubr1∆): 2.83 ± 0.052

RYNRAVPDSKIRIYDLG [RPL10]
protein stability index (doa10∆): 2.53 ± 0.092
protein stability index (pdr5∆): 3.04 ± 0.15
protein stability index (san1∆): 1.89 ± 0.19
protein stability index (ubr1∆): 2.55 ± 0.1

RYVNLLGVTYSSPTLAT [PRE4]
protein stability index (doa10∆): 1.12 ± 0.11
protein stability index (pdr5∆): 1.35 ± 0.13
protein stability index (san1∆): 1.47 ± 0.17
protein stability index (ubr1∆): 1.1 ± 0.12

SAASKKKKNKNKGKKKR [SRP21]
protein stability index (doa10∆): 3.22 ± 0.081
protein stability index (pdr5∆): 3.04 ± 0.1
protein stability index (san1∆): 3.11 ± 0.056
protein stability index (ubr1∆): 3.22 ± 0.056

SADCELLGIDATVPSGR [RPO31]
protein stability index (pdr5∆): 3.06 ± 0.18
protein stability index (ubr1∆): 3.32 ± 0.081

SAEDQLYAITFRKGLGN [QCR2]
protein stability index (doa10∆): 3.06 ± 0.12
protein stability index (pdr5∆): 3.14 ± 0.16
protein stability index (san1∆): 2.96 ± 0.2
protein stability index (ubr1∆): 3.03 ± 0.17

SAEEQLRKIDMLQKKLV [SRB7]
protein stability index (doa10∆): 2.64 ± 0.09
protein stability index (pdr5∆): 2.58 ± 0.065
protein stability index (san1∆): 1.88 ± 0.097
protein stability index (ubr1∆): 2.62 ± 0.043

SAFACKTDEVIILGTNL [BRR2]
protein stability index (doa10∆): 2.86 ± 0.054
protein stability index (pdr5∆): 3 ± 0.043
protein stability index (san1∆): 2.94 ± 0.04
protein stability index (ubr1∆): 2.9 ± 0.035
